Substrate in series [1]: CC(=O)N[C@H](C(=O)N[C@@H](CC(C)C)C(=O)NCC(=O)N[C@@H](CCCCN)C(=O)Nc1ccc2c(C)cc(=O)oc2c1)C(C)C
Kind of series: Fluorogenic AMC release. To be noted: pH 7.4; 25.0 °C. The format is biochemical.

Substrate in series [2]: CC(=O)N[C@H](C(=O)N[C@@H](CC(C)C)C(=O)N[C@H](C(=O)N[C@@H](CCCCN)C(=O)Nc1ccc2c(C)cc(=O)oc2c1)[C@@H](C)O)C(C)C
Kind of series: Fluorogenic AMC release. To be noted: pH 7.4; 25.0 °C. The format is biochemical.

This is an account of results in article PMC5575927.

As a reminder, the Km is the substrate concentration at which the rate is half of its maximum.

B1: PmC11 (Parabacteroides merdae) (protein)
chain: ETPEPRTTRTILVYMMANNSLNSFASKNIESMIEGATSKNLNGGNLIVYYAPAGSPPELLRIKEENGVVKKIHLKDYEKQNSADPDVMRSVIGEVVSQYPADSYGLVLWSHGTAWLPSDYQNKLKAFGQDGNNWMEIDDLAKGLPDDLFDFILFDACYMASVECTYELRNKAEYILASPTETMADGWPYEEMMPQLFATDLQLEKVGETFYNHYLNNTYPYATVSLTKTSELDNLKSVTHDILADKTESDIYSLDPKKMQRLEYLYRSPGMLYDFNDYIKQLATAEQYDRFISCLDKAVVYKAHTPKSYYAAIGNALPIKSYCGLTIFVPQESLPKMLEWYKQRVGWYKAVYE
Turning to B1, the Km was around 185.8 µM in “Fluorogenic AMC release [1]” and 20.4 µM in the series “Fluorogenic AMC release [2]”.
